# Test results as given in patent US20190029975A1, “TOCOPHEROL AND TOCOTRIENOL QUINONE DERIVATIVES FOR INCREASING THIOSULFATE LEVELS OR DECREASING HYDROGEN SULFIDE LEVELS” (BIOELECTRON TECHNOLOGY CORPORATION, priority 2016, published 2019).
# B1: Human sulfide:quinone oxidoreductase (SQOR) (Homo sapiens) (protein)
# chain: NHYEVLVLGGGSGGITMAARMKRKVGAENVAIVEPSERHFYQPIWTLVGAGAKQLSSSGRPTASVIPSGVEWIKARVTELNPDKNCIHTDDDEKISYRYLIIALGIQLDYEKIKGLPEGFAHPKIGSNYSVKTVEKTWKALQDFKEGNAIFTFPNTPVKCAGAPQKIMYLSEAYFRKTGKRSKANIIFNTSLGAIFGVKKYADALQEIIQERNLTVNYKKNLIEVRADKQEAVFENLDKPGETQVISYEMLHVTPPMSPPDVLKTSPVADAAGWVDVDKETLQHRRYPNVFGIGDCTNLPTSKTAAAVAAQSGILDRTISVIMKNQTPTKKYDGYTSCPLVTGYNRVILAEFDYKAEPLETFPFDQSKERLSMYLMKADLMPFLYWNMMLRGYWGGPAFLRKLFHLGMS
# notes: The final SQOR protein contained amino acids 42-450 of the human SQOR protein; His tag (inferred from IMAC purification on Ni resin); made in house; E. coli is inferred from the Takara chaperone plasmid pG-KJE8 and from own knowledge of the cited Jackson et al. 2012 method
# Substrate: CC(C)=CCC/C(C)=C/CC/C(C)=C/CC[C@@](C)(O)CCC1=C(C)C(=O)C(C)=C(C)C1=O
# Assay: Kinetic parameters of EPI-743 with SQOR
# Type: biochemical, human
# Settings: other: 200 micromolar Na2S, 2 mM Na2SO3, pH 7.5, reduced oxygen (<1000 ppm), 30.0 °C
# Source text: Human sulfide:quinone oxidoreductase (SQOR) protein was expressed and purified according to the method described in Jackson, M.R., et al. “Human Sulfide:Quinone Oxidoreductase Catalyzes the First Step in Hydrogen Sulfide Metabolism and Produces a Sulfane Sulfur Metabolite”, Biochemistry, Publication Date (Web): 1 Aug 2012, with the following exceptions: (1) a chaperone plasmid set (Plasmid pG-KJE8, plasmid #1 in catalog no. 3340) from Takara Bio Inc. (Japan) was used; (2) DHPC detergent was replaced with the following: 1.0% (w/v) CHAPS, 0.5% deoxycholate, or 1.0% octylmaltoside. The detergent was used in the initial lysis buffer, and removed in the IMAC purification step (no detergents in the storage conditions); (3) the ion-exchange (Q-sepharose) chromatography step was not used in the purification. The final SQOR protein contained amino acids 42-450 of the human SQOR protein.
# Target protein was purified on IMAC to ≥90% purity (on Ni resin). Target protein was stored in 25 mM Tris pH 7.5, 150mM NaCl, 2 mM DTT 20% glycerol.
# EPI-743 was assayed for activity with SQOR. […]
# Briefly, SQOR enzyme, compound, inorganic sulfide (200 micromolar Na2S) and a sulfur acceptor (2 mM Na2SO3) were brought together. The reduction of the quinone substrate to hydroquinone product in the presence of sulfide ion, sulfur acceptor and SQOR enzyme was monitored by the decrease in quinone concentration over time, by observing the UV signal diagnostic for the specific quinone (See Table 3):
# General assay conditions: Assays were performed in 100 mM Tris, pH 7.5, 0.5 mM EDTA. SQOR was included at approximately 5 nM, as estimated by total protein concentration determined by Bradford assay with BSA as standard and the estimated purity of SQOR from SDS-PAGE. […]
# The kinetic parameters of compounds with SQOR were determined by varying the concentration of the compound over a suitable range and interrogating the impact of that variation on the enzymatic rate.
# The parameters kcat and Km, for example, can be determined by nonlinear fitting of the rate data to the Michaelis-Menten equation: […]
protein,measurement,value
B1,Km,200 µM
same,kcat,76 s⁻¹
same,kcat/Km,400000 M⁻¹ s⁻¹
